# Experiments:
# [1] = test system: N=C(N)NCCC[C@H](N)C(=O)Nc1ccc([N+](=O)[O-])cc1; assay: purified protein, by the assay type; settings: other: aa-pNA varied, 3 mM MnCl2, 100 nM PaPepA, pH 8.0, 25 °C, pH 8.0
# [2] = test system: CC(C)C[C@H](N)C(=O)Nc1ccc([N+](=O)[O-])cc1; assay: purified protein, by the assay type; settings: 25.0 °C
substance,measurement,setting,value
PaPepA (Pseudomonas aeruginosa UCBPP-PA14),Km,[1],120 ± 20 µM
same,kcat,[1],0.052 s⁻¹
same,kcat/Km,[1],440 M⁻¹ s⁻¹
same,Km,"[2]; other: 5 % PEG 8000, Leu-pNA varied",110 µM
same,Km,"[2]; other: H2O (0% PEG-8000), Leu-pNA varied",86.9 µM
